Tested on: patients with locally advanced or metastatic urothelial cancer
Test: Same phase 2 study: safety (adverse events, NCI CTCAE v4.03)
Format: in vivo, human
Details: Cohort 2 (N = 89)
Text: Safety assessments will be based on the information collected through the safety surveillance process and will include the data from recorded adverse events (AEs) including SAEs, recording of concomitant medication, physical examination findings, cardiac monitoring, and laboratory tests.
The assessment of safety during the course of this study will consist of the surveillance and recording of AEs including SAEs, recording of concomitant medication, and measurements of protocol-specified physical examination findings, cardiac monitoring, and laboratory tests.
AE severity should be graded using the National Cancer Institute's Common Terminology Criteria for Adverse Events (NCI CTCAE), Version 4.03. These criteria are provided in the study manual.
An overview of AEs will provide a tabulation of the incidence of all AEs, treatment-emergent AEs, treatment-related AEs, Grade 3 and higher AEs. SAEs, treatment-related SAEs, deaths, and AEs leading to study treatment discontinuation. Adverse events will be defined as treatment emergent if they are newly occurring or worsened following study treatment.
AEs will be classified by system organ class and preferred tem using the Medical Dictionary for Regulatory Activities (MedDRA) and graded using NCI CTCAE, Version 4.03.
The incidence of AEs will be summarized by system organ class, preferred term, severity and relationship to study drug. In the event of multiple occurrences of the same AE in one patient, the AE will be counted once as the occurrence for the maximum grade. AEs leading to premature discontinuation of study drug will be summarized and listed in the same manner.

## enfortumab vedotin: Nectin-4 directed ADC: fully human anti-nectin-4 IgG1 kappa antibody (AGS-22C3) conjugated to MMAE via protease-cleavable maleimidocaproyl valine-citrulline linker
  AE of special interest, All Grade: Ocular Events, Blurred Vision: 9 (10.1) N (%)
  AE of special interest, All Grade: Ocular Events, Corneal Disorders: 5 (5.6) N (%)
  AE of special interest, All Grade: Ocular Events, Dry Eye Disorders: 27 (30.3) N (%)
  AE of special interest, All Grade: Peripheral Neuropathy: 51 (58.4) N (%)
  AE of special interest, All Grade: Rash: 59 (66.3) N (%)
  AE of special interest, ≥Gr 3: Hyperglycemia: 8 (9) N (%)
  AE of special interest, ≥Gr 3: IRR: 1 (1.1) N (%)
  AE of special interest, ≥Gr 3: Peripheral Neuropathy: 7 (7.9) N (%)
  AE of special interest, ≥Gr 3: Rash: 15 (16.9) N (%)
  Any TEAEs: 89 (100.0) n (%)
  Any TEAEs leading to death: 8 (9.0) n (%)
  Any TEAEs leading to treatment discontinuation: 18 (20.2) n (%)
  Any grade 3-5 TEAEs: 62 (69.7) n (%)
  Any serious TEAEs: 35 (39.3) n (%)
  SAEs (All): Acute kidney injury: 9 (10.1) n (%)
  SAEs (All): Diarrhoea: 3 (3.4) n (%)
  SAEs (All): Febrile neutropenia: 1 (1.1) n (%)
  SAEs (All): Nausea: 2 (2.2) n (%)
  SAEs (All): Overall: 35 (39.3) n (%)
  SAEs (All): Pneumonia: 3 (3.4) n (%)
  SAEs (All): Sepsis: 4 (4.5) n (%)
  SAEs (All): Urinary tract infection: 3 (3.4) n (%)
  SAEs (Related): Acute kidney injury: 3 (3.4) n (%)
  SAEs (Related): Diarrhoea: 2 (2.2) n (%)
  SAEs (Related): Febrile neutropenia: 1 (1.1) n (%)
  SAEs (Related): Nausea: 1 (1.1) n (%)
  SAEs (Related): Overall: 15 (16.9) n (%)
  SAEs (Related): Pneumonia: 1 (1.1) n (%)
  Treatment-related AE leading to discontinuation: Acute kidney injury: 2 (2.2) n (%)
  Treatment-related AE leading to discontinuation: Dermatitis bullous: 1 (1.1) n (%)
  Treatment-related AE leading to discontinuation: Lipase increased: 2 (2.2) n (%)
  Treatment-related AE leading to discontinuation: Metabolic acidosis: 1 (1.1) n (%)
  Treatment-related AE leading to discontinuation: Multiple organ dysfunction syndrome: 1 (1.1) n (%)
  Treatment-related AE leading to discontinuation: Muscular weakness: 1 (1.1) n (%)
  Treatment-related AE leading to discontinuation: Overall: 14 (15.7) n (%)
  Treatment-related AE leading to discontinuation: Peripheral motor neuropathy: 1 (1.1) n (%)
  Treatment-related AE leading to discontinuation: Peripheral sensory neuropathy: 4 (4.5) n (%)
  Treatment-related AE leading to discontinuation: Pneumonitis: 1 (1.1) n (%)
  Treatment-related TEAEs: 86 (96.6) n (%)
  Treatment-related TEAEs (all grades): Alopecia: 45 (50.6) n (%)
  Treatment-related TEAEs (all grades): Anaemia: 22 (24.7) n (%)
  Treatment-related TEAEs (all grades): Aspartate aminotransferase increased: 7 (7.9) n (%)
  Treatment-related TEAEs (all grades): Decreased appetite: 29 (32.6) n (%)
  Treatment-related TEAEs (all grades): Diarrhoea: 20 (22.5) n (%)
  Treatment-related TEAEs (all grades): Dry eye: 11 (12.4) n (%)
  Treatment-related TEAEs (all grades): Dry skin: 16 (18.0) n (%)
  Treatment-related TEAEs (all grades): Dysgeusia: 24 (27.0) n (%)
  Treatment-related TEAEs (all grades): Fatigue: 30 (33.7) n (%)
  Treatment-related TEAEs (all grades): Lacrimation increased: 9 (10.1) n (%)
  Treatment-related TEAEs (all grades): Nausea: 20 (22.5) n (%)
  Treatment-related TEAEs (all grades): Neutropenia: 11 (12.4) n (%)
  Treatment-related TEAEs (all grades): Oedema peripheral: 10 (11.2) n (%)
  Treatment-related TEAEs (all grades): Overall: 86 (96.6) n (%)
  Treatment-related TEAEs (all grades): Peripheral sensory neuropathy: 42 (47.2) n (%)
  Treatment-related TEAEs (all grades): Pruritus: 27 (30.3) n (%)
  Treatment-related TEAEs (all grades): Rash maculo-papular: 27 (30.3) n (%)
  Treatment-related TEAEs (all grades): Vomiting: 7 (7.9) n (%)
  Treatment-related TEAEs (all grades): Weight decreased: 23 (25.8) n (%)
  Treatment-related TEAEs leading to death: 3 (3.4) n (%)
  Treatment-related TEAEs leading to treatment discontinuation: 14 (15.7) n (%)
  Treatment-related TEAEs ≥Grade 3: Acute kidney injury: 4 (4.5) n (%)
  Treatment-related TEAEs ≥Grade 3: Amylase increased: 3 (3.4) n (%)
  Treatment-related TEAEs ≥Grade 3: Anaemia: 5 (5.6) n (%)
  Treatment-related TEAEs ≥Grade 3: Aspartate aminotransferase increased: 2 (2.2) n (%)
  Treatment-related TEAEs ≥Grade 3: Decreased appetite: 5 (5.6) n (%)
  Treatment-related TEAEs ≥Grade 3: Diarrhoea: 5 (5.6) n (%)
  Treatment-related TEAEs ≥Grade 3: Fatigue: 6 (6.7) n (%)
  Treatment-related TEAEs ≥Grade 3: Febrile neutropenia: 1 (1.1) n (%)
  Treatment-related TEAEs ≥Grade 3: Hyperglycaemia: 5 (5.6) n (%)
  Treatment-related TEAEs ≥Grade 3: Hyponatraemia: 3 (3.4) n (%)
  Treatment-related TEAEs ≥Grade 3: Lipase increased: 5 (5.6) n (%)
  Treatment-related TEAEs ≥Grade 3: Neutropenia: 8 (9.0) n (%)
  Treatment-related TEAEs ≥Grade 3: Neutrophil count decreased: 3 (3.4) n (%)
  Treatment-related TEAEs ≥Grade 3: Overall: 49 (55.1) n (%)
  Treatment-related TEAEs ≥Grade 3: Peripheral sensory neuropathy: 3 (3.4) n (%)
  Treatment-related TEAEs ≥Grade 3: Pruritus: 3 (3.4) n (%)
  Treatment-related TEAEs ≥Grade 3: Rash erythematous: 2 (2.2) n (%)
  Treatment-related TEAEs ≥Grade 3: Rash maculo-papular: 7 (7.9) n (%)
  Treatment-related grade 3-5 TEAEs: 49 (55.1) n (%)
  Treatment-related serious TEAEs: 15 (16.9) n (%)
Additional 3 months follow-up
  TRAEs, Any Grade: Alopecia: 45 (51) n (%)
  TRAEs, Any Grade: Anemia: 22 (25) n (%)
  TRAEs, Any Grade: Decreased appetite: 29 (33) n (%)
  TRAEs, Any Grade: Diarrhea: 20 (22) n (%)
  TRAEs, Any Grade: Dysgeusia: 25 (28) n (%)
  TRAEs, Any Grade: Fatigue: 30 (34) n (%)
  TRAEs, Any Grade: Hyperglycemia: 8 (9) n (%)
  TRAEs, Any Grade: Lipase increased: 7 (8) n (%)
  TRAEs, Any Grade: Nausea: 20 (22) n (%)
